Measured values reported in US8889408B2, “Factor taking part in transcription control” (Sony Corporation, priority 2002, dated 2014).

Assays:
retinoic acid receptor = assay: RAR reporter CAT analysis in HepG2 cells; type: cell-based; conditions: pcDNA3-HDART 0, 0.5, 1.0 μg; ATRA 10^−8 M; HepG2 cells
Method: Since it is shown in the above example that HDART is able to interact with Skip, the functional role of HDART on the transcription route ascribed to a nuclear receptor was analyzed. First, the effect of HDART on the transcription regulation by retinoic acid receptor was analyzed. For this purpose, the CAT analysis was made using a RAR (retinoid acid receptor) reporter plasmid incorporating a thymidine kinase minimum promoter (pTREpal-tata) and CAT gene therein downstream of a retinoid response element.
More particularly, pcDNA3-HDART, capable of steadily expressing HDART, and, at the same time, RAR reporter plasmid, were transfected into HepG2 cells by use of Effectene kit (QIAGEN™). It is to be noted that the pcDNA3-HDART expression vector was introduced in different amounts of 0, 0.5 and 1.0 μg, and the amount of DNA in the respective transfections was equalized at 1 μg by adding the appropriate amount of a vacant vector of pcDNA. After the transfection, growth was made in the presence (10^−8 M) or absence of ATRA and the CAT activity was measured. The results of the measurement (FIG. 6) are indicated in terms of values corrected on the basis of the CAT activity obtained after introduction of 1.0 μg of a vacant vector in the absence of ATRA. In addition, the average of the results of three experiments and a standard deviation in terms of an error bar are also shown.
Next, the influence of the overexpression of N4TPR on the transcription from RAR or a glucocorticoid responsive promoter was checked. It will be noted that this test was made in the same manner as in the reporter analysis set out in Example 4, but using GFP-N4TPR expression vector (0, 0.3 and 0.5 μg).

MM-1-19-P cells = assay: ATRA-induced differentiation of MM-1-19-P rhabdomyosarcoma cells; type: cell-based, human
Text: It is known that ATRA (all-trans retinoic acid) is an important inducer for tumor cell differentiation (20-22). The human rhabdomyosarcoma cell line MM-1-19-P is constituted mainly of small polygonal cells, which when provided with retinoic acid, ultimately differentiate into myotubular cytomegalic cells. In order to clarify the physiological role of HDART in the reaction ascribed to nuclear hormone receptors, the influence of the expression with HDART on the differentiation of MM-1-19-P caused by ATRA was analyzed.
MM-1-19-P cells were plated in a […] Petri dish, followed by co-transfection of the cells with 0.4 μg of pGFP vector and 2 μg of pcDNA3 (vacant vector) or pcDMA3-HDART (HDART expression vector). 24 hours after the transfection, the medium was changed with an ATRA-containing (2 μM) or ATRA-free fresh one. […] All experiments were repeated four times, and the number of cells assessed as positive for GFP was counted. It will be noted that in FIG. 12, the standard microphotographs of green fluorescence of GFP are shown in panels of FIGS. 12A, 12B, 12C and 12D, and the phase differential microphotographs are shown in panels of FIGS. 12E and 12F, respectively. In the figure, 12A indicates ATRA non-treated, vacant vector-introduced cells, 12B indicates ATRA treated, vacant vector-introduced cells, 12C indicates ATRA-non-treated, HDART expression vector-introduced cells, 12D indicates ATRA-treated, HDART expression vector-introduced cells, 12E indicates cells under the same conditions as in 12C above, and 12F indicates cells under the same conditions as in 12D above. In addition, the black arrow in the panel of FIG. 12F indicates undifferentiated GFP positive cells, and white arrow indicates differentiated cells.

Skip = molecular target: T1, Skip (Homo sapiens, UniProt Q13573); assay: Yeast two-hybrid analysis (β-galactosidase) of HDART-Skip interaction; type: binding; parameters: expressed in transfected cells; host or cells: Saccharomyces cerevisiae Y190; conditions: Gal4DBD-HDART and deletion mutants with Gal4AD-Skip; β-galactosidase activity
T1 sequence (Q13573 1-536): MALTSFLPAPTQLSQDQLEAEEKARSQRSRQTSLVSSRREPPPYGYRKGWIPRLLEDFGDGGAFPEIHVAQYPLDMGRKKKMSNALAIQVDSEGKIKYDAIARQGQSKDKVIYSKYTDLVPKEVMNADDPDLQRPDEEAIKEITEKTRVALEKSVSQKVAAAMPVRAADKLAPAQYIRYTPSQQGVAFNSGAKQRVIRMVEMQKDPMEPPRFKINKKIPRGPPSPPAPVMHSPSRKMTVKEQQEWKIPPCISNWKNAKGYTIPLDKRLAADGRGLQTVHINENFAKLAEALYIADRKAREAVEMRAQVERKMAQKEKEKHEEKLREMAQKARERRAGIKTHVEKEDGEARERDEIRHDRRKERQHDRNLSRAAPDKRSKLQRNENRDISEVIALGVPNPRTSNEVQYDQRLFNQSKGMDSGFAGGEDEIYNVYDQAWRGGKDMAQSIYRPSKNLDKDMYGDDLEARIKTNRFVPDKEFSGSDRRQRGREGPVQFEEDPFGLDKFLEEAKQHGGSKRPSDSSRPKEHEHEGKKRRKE
Text: In order to isolate a protein that binds to this HDART, a yeast two-hybrid system was used. More particularly, a yeast MATCHMAKER two-hybrid analysis kit (Clontech) was used for the isolation. The ORF full length of HDART was inserted so that it and the Gal4 DNA binding domain reading frame were aligned in the same frame with each other within pAS-1 vector (Clontech). This bait plasmid was transformed into Saccharomyces cerevisiae Y190 along with pACT2 prey plasmid whose HeLa cDNA (Clontech) had been sub-cloned. The screening for clones into which both plasmids were introduced was carried out according to the kit protocol. […]
For mapping of regions on the Skip taking part in the interaction with HDART, a series of deletion mutations where various regions on Skip (N-terminus region (codon 1-220), nuclear hormone binding region (NHR binding, codon 221-388), and tran-activation region (TA, codon 438-536) were deleted, and the interaction between HDART and mutated Skip was analyzed according to the yeast two-hybrid analysis using Gal4DBD-HDART as set forth in Example 2. The results of the analysis are shown in FIG. 5A. The sign “+” indicated at the right of FIG. 5A indicates the observation of the interaction by the filter lift analysis of β-galactosidase activity, and the number of “+” indicates the relative intensity of the interaction. […]

interaction with Skip (Skip): able to directly interact with Skip
B1: HDART: HDAC associated repressor TPR protein, 855 amino acids, SEQ ID NO: 2; transcription repressing factor, used as fusions or expressed from vector (protein, listed as Homo sapiens)
chain: MVVMARLSRPERPDLVFEEEDLPYEEEIMRNQFSVKCWLRYIEFKQGAPKPRLNQLYERALKLLPCSYKLWYRYLKARRAQVKHRCVTDPAYEDVNNCHERAFVFMHKMPRLWLDYCQFLMDQGRVTHTRRTFDRALRALPITQHSRIWPLYLRFLRSHPLPETAVRGYRRFLKLSPESAEEYIEYLKSSDRLDEAAQRLATVVNDERFVSKAGKSNYQLWHELCDLISQNPDKVQSLNVDAIIRGGLTRFTDQLGKLWCSLADYYIRSGHFEKARDVYEEAIRTVMTVRDFTQVFDSYAQFEESMIAAKMETASELGREEEDDVDLELRLARFEQLISRRPLLLNSVLLRQNPHHVHEWHKRVALHQGRPREIINTYTEAVQTVDPFKATGKPHTLWVAFAKFYEDNGQLDDARVILEKATKVNFKQVDDLASVWCQCGELELRHENYDEALRLLRKATALPARRAEYFDGSEPVQNRVYKSLKVWSMLADLEESLGTFQSTKAVYDRILDLRIATPQIVINYAMFLEEHKYFEESFKAYERGISLFKWPNVSDIWSTYLTKFIARYGGRKLERARDLFEQALDGCPPKYAKTLYLLYAQLEEEWGLARHAMAVYERATRAVEPAQQYDMFNIYIKRAAEIYGVTHTRGIYQKAIEVLSDEHAREMCLRFADMECKLGEIDRARAIYSFCSQICDPRTTGAFWQTWKDFEVRHGNEDTIKEMLRIRRSVQATYNTQVNFMASQMLKVSGSATGTVSDLAPGQSGMDDMKLLEQRAEQLAAEAERDQPLRAQSKILFVRSDASREELAELAQQVNPEEIQLGEDEDEDEMDLEPNEVRLEQQSVPAAVFGSLKED
ATRA-induced CAT activity (retinoic acid receptor): inhibited by HDART in a concentration dependent manner
change in phenotype on ATRA treatment (MM-1-19-P cells; HDART expression vector-introduced GFP positive cells, ATRA 2 μM, 48 hours): little change in the phenotype
numbers of GFP positive cells, ATRA treated versus non-treated group (MM-1-19-P cells; HDART expression vector-introduced cells): same
